{"source": "patent US20200377573A1", "about": "(Daiichi Sankyo, published 2020)", "binders": {"B1": {"name": "peptide derivative H322AT (designed binder)", "chain": "DPQFGLFSKYRTPNCSQHEGMACYALYEPVCGSDMSTYANECTLCMKIREGGHNIKIIRNGPCGG"}, "B2": {"name": "peptide H228 (designed binder)", "chain": "B1 chain with S16G, Q17H, H18Y, E19N, M21W, Y24Q, L26F, Y27F"}, "B3": {"name": "peptide H321 (designed binder)", "chain": "B1 chain with Q17D, H18F, E19D, L26F, A39M, T43A"}, "B4": {"name": "peptide derivative H308AT (designed binder)", "chain": "B1 chain with Q17D, E19A, Y24V"}, "B5": {"name": "peptide M7 (designed binder)", "chain": "B1 chain with Q17D, E19A, Y24V, L26F"}, "B6": {"name": "peptide H223 (designed binder)", "chain": "B1 chain with S16T, Q17M, H18D, E19M, Y24W, L26F"}, "B7": {"name": "peptide H322 (designed binder)", "chain": "B1 chain with A39V, T43A"}, "B8": {"name": "peptide H308 (designed binder)", "chain": "B1 chain with Q17D, E19A, Y24V, A39E, T43V"}, "B9": {"name": "peptide H218 (designed binder)", "chain": "B1 chain with S16L, Q17K, H18S, L26Y"}, "B10": {"name": "peptide derivative H321AT (designed binder)", "chain": "B1 chain with Q17D, H18F, E19D, L26F"}, "B11": {"name": "peptide derivative H308_D1G_S16A (designed binder)", "chain": "B1 chain with D1G, S16A, Q17D, E19A, Y24V, A39E, T43V"}, "B12": {"name": "peptide derivative H321AT_D1G_S16A (designed binder)", "chain": "B1 chain with D1G, S16A, Q17D, H18F, E19D, L26F"}, "B13": {"name": "peptide derivative H322AT_D1G_S16A (designed binder)", "chain": "B1 chain with D1G, S16A"}}, "note": "Changes are numbered by the printed parent chain.", "data": [{"target": "T1, HTRA1 (full) (human, UniProt Q92743 23-480)", "T1 sequence (Q92743 23-480)": "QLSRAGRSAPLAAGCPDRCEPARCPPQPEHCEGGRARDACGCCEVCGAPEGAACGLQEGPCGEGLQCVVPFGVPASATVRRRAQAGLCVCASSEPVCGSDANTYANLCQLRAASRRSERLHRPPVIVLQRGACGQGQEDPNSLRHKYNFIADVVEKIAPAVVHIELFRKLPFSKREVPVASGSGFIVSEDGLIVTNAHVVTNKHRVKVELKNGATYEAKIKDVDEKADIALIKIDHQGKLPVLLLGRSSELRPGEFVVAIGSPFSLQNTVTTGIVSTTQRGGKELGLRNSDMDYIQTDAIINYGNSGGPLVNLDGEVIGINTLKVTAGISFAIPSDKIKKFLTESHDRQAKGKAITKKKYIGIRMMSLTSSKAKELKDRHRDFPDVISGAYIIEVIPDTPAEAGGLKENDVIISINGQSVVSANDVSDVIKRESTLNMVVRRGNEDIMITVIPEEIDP", "assay": "cell-based or functional assay", "units": {"IC50 (nM) for HTRA1 (full), decomposition rate of substrate peptide H2-Opt": "nM"}, "values": [{"binder": "B1", "IC50 (nM) for HTRA1 (full), decomposition rate of substrate peptide H2-Opt": 25}, {"binder": "B2", "IC50 (nM) for HTRA1 (full), decomposition rate of substrate peptide H2-Opt": 38}, {"binder": "B3", "IC50 (nM) for HTRA1 (full), decomposition rate of substrate peptide H2-Opt": 29}, {"binder": "B4", "IC50 (nM) for HTRA1 (full), decomposition rate of substrate peptide H2-Opt": 31}, {"binder": "B5", "IC50 (nM) for HTRA1 (full), decomposition rate of substrate peptide H2-Opt": 24}, {"binder": "B6", "IC50 (nM) for HTRA1 (full), decomposition rate of substrate peptide H2-Opt": 66}, {"binder": "B7", "IC50 (nM) for HTRA1 (full), decomposition rate of substrate peptide H2-Opt": 17}, {"binder": "B8", "IC50 (nM) for HTRA1 (full), decomposition rate of substrate peptide H2-Opt": 15}, {"binder": "B9", "IC50 (nM) for HTRA1 (full), decomposition rate of substrate peptide H2-Opt": 55}, {"binder": "B10", "IC50 (nM) for HTRA1 (full), decomposition rate of substrate peptide H2-Opt": 18}]}, {"target": "T2, HTRA1 (cat) (human, UniProt Q92743 158-373)", "T2 sequence (Q92743 158-373, form in doubt)": "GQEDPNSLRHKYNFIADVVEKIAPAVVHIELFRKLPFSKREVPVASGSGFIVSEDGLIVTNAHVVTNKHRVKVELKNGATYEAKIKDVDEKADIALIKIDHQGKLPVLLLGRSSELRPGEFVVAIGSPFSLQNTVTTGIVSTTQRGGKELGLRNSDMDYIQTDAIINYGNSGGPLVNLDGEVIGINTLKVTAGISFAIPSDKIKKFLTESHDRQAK", "assay": "cell-based or functional assay", "units": {"IC50 (nM) for HTRA1 (cat), decomposition rate of substrate peptide H2-Opt": "nM"}, "values": [{"binder": "B1", "IC50 (nM) for HTRA1 (cat), decomposition rate of substrate peptide H2-Opt": 45}, {"binder": "B2", "IC50 (nM) for HTRA1 (cat), decomposition rate of substrate peptide H2-Opt": 71}, {"binder": "B3", "IC50 (nM) for HTRA1 (cat), decomposition rate of substrate peptide H2-Opt": 48}, {"binder": "B4", "IC50 (nM) for HTRA1 (cat), decomposition rate of substrate peptide H2-Opt": 49}, {"binder": "B5", "IC50 (nM) for HTRA1 (cat), decomposition rate of substrate peptide H2-Opt": 43}, {"binder": "B6", "IC50 (nM) for HTRA1 (cat), decomposition rate of substrate peptide H2-Opt": 41}, {"binder": "B7", "IC50 (nM) for HTRA1 (cat), decomposition rate of substrate peptide H2-Opt": 50}, {"binder": "B8", "IC50 (nM) for HTRA1 (cat), decomposition rate of substrate peptide H2-Opt": 37}, {"binder": "B9", "IC50 (nM) for HTRA1 (cat), decomposition rate of substrate peptide H2-Opt": 72}, {"binder": "B10", "IC50 (nM) for HTRA1 (cat), decomposition rate of substrate peptide H2-Opt": 46}]}, {"target": "T1, HTRA1 (full)", "assay": "cell-based or functional assay", "remark": "another data set of the same source", "units": {"IC50 (nM) for HTRA1 (full), decomposition rate of substrate peptide H2-Opt": "nM"}, "values": [{"binder": "B11", "IC50 (nM) for HTRA1 (full), decomposition rate of substrate peptide H2-Opt": 9.1}, {"binder": "B12", "IC50 (nM) for HTRA1 (full), decomposition rate of substrate peptide H2-Opt": 12}, {"binder": "B13", "IC50 (nM) for HTRA1 (full), decomposition rate of substrate peptide H2-Opt": 12.2}]}, {"target": "T2, HTRA1 (cat)", "assay": "cell-based or functional assay", "remark": "another data set of the same source", "units": {"IC50 (nM) for HTRA1 (cat), decomposition rate of substrate peptide H2-Opt": "nM"}, "values": [{"binder": "B11", "IC50 (nM) for HTRA1 (cat), decomposition rate of substrate peptide H2-Opt": 7.9}, {"binder": "B12", "IC50 (nM) for HTRA1 (cat), decomposition rate of substrate peptide H2-Opt": 9}, {"binder": "B13", "IC50 (nM) for HTRA1 (cat), decomposition rate of substrate peptide H2-Opt": 12.9}]}]}
